The source of these data is the DeepSol protein solubility set.

This data set can be described thus: soluble on expression in E. coli; label from the status in PepcDB or PDB records.
Take “MGSDKIHHHHHHMSTVDPVEQLLANGLKNLWYPICPVGFIEDKPVSLRRLGYKLAVWRDTDGTLHALEDHCPHRGAPLSRGVNLGDRLQCPYHGVEVRCDGVTARVPGSPGCKLEGSQATRFFHITEAAGAVWLYNSAGNVEEAPPLVLPEQLTDPEFSHFLCYTEWRGDYRYVLDNVMDPMHGTYLHKQSHSMSEGESQARFVTRDTDTGFIFEKDGQRGVNFDWTEWADTGMHWMRLEIPYPKTGGPGGNFHIVGSYTPIARDLCAVFHWRCRPLTGWQRDTWRFLYRNRLEARHWAVLEQDREMLEFMEPDANQRENLYQHDLGLVRLRRHLKNLAKAQLELIEARQL”: the “soluble on expression in E. coli” value is reported as “not soluble”.

As to “MGSDKIHHHHHHMKKIGIIGGGQLGKMMTLEAKKMGFYVIVLDPTPRSPAGQVADEQIVAGFFDSERIEDLVKGSDVTTYDLEHIDVQTLKKLYNEGYKIHPSPYTLEIIQDKFVQKEFLKKNGIPVPEYKLVKDLESDVREFGFPVVQKARKGGYDGRGVFIIKNEKDLENAIKGETYLEEFVEIEKELAVMVARNEKGEIACYPVVEMYFDEDANICDTVIAPARIEEKYSKIAREIATSVVEALEGVGIFGIEMFLTKQGEILVNEIAPRPHNSGHYTIEACVTSQFEQHIRAIMNLPLGSTELLIPAVMVNLLGEEGYYGKPALIGLEEALAIEGLSLHFYGKKETRPYRKMGHFTVVDRDVERALEKALRAKKILKVVSEEGAMCQG”, the “soluble on expression in E. coli” value is on record as “not soluble”.

“MKGNYVQVYVMLPLDAVSVNNRFEKGDELRAQLRKLVEAGVDGVMVDVWWGLVEGKGPKAYDWSAYKQLFELVQKAGLKLQAIMSFHQCGGNVGDAVNIPIPQWVRDVGTRDPDIFYTDGHGTRNIEYLTLGVDNQPLFHGRSAVQMYADYMTSFRENMKDFLDAGVIVDIEVGLGPAGELRYPSYPQSHGWSFPGIGEFICYDKYLQADFKAAAAAVGHPEWEFPNDAGQYNDTPERTQFFRDNGTYLSEKGRFFLAWYSNNLIKHGDRILDEANKVFLGYKVQLAIKIAGVHWWYKVPSHAAELTAGYYNLHDRDGYRTIARMLKRHRASINFTCAEMRDSEQPPDAMSAPEELVQQVLSAGWREGLNVSCENALPRYDPTAYNTILRNARPHGINQSGPPEHKLFGFTYLRLSNQLVEGQNYVNFKTFVDRMHANLPRDPYVDPMAPLPRSGPEISIEMILQAAQPKIQPFPFQEHTDLPVGPTGGMGGQAEGPTCG”: the “soluble on expression in E. coli” value is listed as “soluble”.

On to “MGSDKIHHHHHHFKLLAADGDSLLVGARNAVYNLSLSTLSVNHKIDWKPPAEHIEECIMKGKSKTDCQNYIRVLARKSAGVSLVCGTHAFSPKCREYTVTEFGIRNTRQFDGQGISPYDPKHNSSALYVPGTNQLFVATVTDFVGNDALIYRKTIDETPSSKSAANIRTQSYDARVLNAPNFVATFAYKEHVYFWFREIASEAIDNNEEPQIYARVARVCKNDKGGARPANERWTSYLKARLNCSLPSGSSPFYFNELKAVSDPIDAGNNNHVVYTVFSTPDSDVRMSAVCKFSMKKIREEFDNGTFKHQNNAQSMWMAFNRNEVPKPRPGSCSPDSTKLPENTVSFILHHPLLHRPIPSVAAPLLVEGADRADLTQITVLPRVRAVGGHNYDILFIGTSDGKVLKVVEVDGNATVIQSATVFQRGVPIVNLLTTKES”, for which the “soluble on expression in E. coli” value is “not soluble”.

On to “MKYMIGVDGGGTKTEAIAFDKDGNELVRATSGFGNILIDFEEALVHIMEAINQCQKSLINGHCVCVCLGLAGISGANTNELTLRLKKKYGTKIEIFNDAMIAHAAALKGKDGILTIGGTGAICIGKKGEVYQYSGGWGHILGDEGSGYWIALQALKKMAIQFDQGISLCPLSLNIQRQFQLLTPSHIKSLVYTSSKDKIAAIAPLVIQEARDGNDDAHEIMMQAGKELARITVNVYNKLNFKHSTPIAASGSILRLVPEIFAVFKKCCEESMKEITFVSQAEMAVKGTYYLMRDIYFLEHHHHHH”, for which the “soluble on expression in E. coli” value is recorded as “soluble”.

Take “MGSDKIHHHHHHMWIGFDYGSANCAVGIMHEGKISQIPLSANSQYLPSTLYALDRELIAQAVYQGISQDKKSEYAKLRSSQLSRAIQVRHELDLSMDEQTVFVGQAAIDAYLEMPEEGFYVRSPKSFLGANGLREEQVALFEDIVTLMMLHVKGITDNYLADNGLPAATHAVIGRPVNFQSIGGEKSNQQAEAILSLAAKRAGFTQVAFLFEPVAAGMDFEASLEQDSTVLVVDVGGGTTDCSVVRMGPSFAANKQREQDCLGHSGQRVGGNDLDIALAMKGFMPSLGLDSLLKSGKPMPSAPFWQAVAVNDVSAQRDFASLNARKLLDTLVKDAKEPELVKRLKKVQQDQLGYKLVRQAEGAKVTLSDAMQTECDLGFIASDLSVELTQAQFSHFIIEPLAKIEALIQAAVAKADVNPDLVYVTGGTARSPAIYAKIASVYPEAKIVVGDHFGSVTAGLTRWTQKVF”: the “soluble on expression in E. coli” value is recorded as “not soluble”.
